One block for each molecule: values may come before it.
What was measured:
[1] = molecular target: Ago protein from Maribacter polysiphoniae (Maribacter polysiphoniae); assay: cryo-EM structure; TIR-APAZ/Ago with gRNA and target ssDNA (1:1.5:2), tetramer of heterodimers, 2.95 Å
[2] = molecular target: TIR-APAZ protein from Maribacter polysiphoniae (Maribacter polysiphoniae); assay: as above
[3] = molecular target: TIR-APAZ/Ago complex from Maribacter polysiphoniae (Maribacter polysiphoniae); assay: as above
[4] = molecular target: SIR2-APAZ;short prokaryotic Ago (SIR2-APAZ system) (Geobacter sulfurreducens;Geobacter …, UniProt Q74DF6;Q74DF5 1-587;1-473, |); assay: cryo-EM; metal ion at 5'-phosphate; 2 mM MgCl2; heterodimer; 3.0 A; cryo-EM: complex:gRNA:target DNA 1:1.5:2; TIR system 25 mM Tris-HCl pH 7.5, 150 mM NaCl, 2 mM DTT, 2 mM MgCl2; SIR2 system 25 mM HEPES pH 7.9, 150 mM NaCl, 2 mM DTT, 2 mM MgCl2 (gel-filtration buffers); native PAGE conditions not in material; settings: protein: recombinant;recombinant; tags: His-SUMO (N-terminal); copies: 1;1; about 25 bp visible
Chain of SIR2-APAZ;short prokaryotic Ago (SIR2-APAZ system) (chain, as listed by the source |, chain 1 of 2): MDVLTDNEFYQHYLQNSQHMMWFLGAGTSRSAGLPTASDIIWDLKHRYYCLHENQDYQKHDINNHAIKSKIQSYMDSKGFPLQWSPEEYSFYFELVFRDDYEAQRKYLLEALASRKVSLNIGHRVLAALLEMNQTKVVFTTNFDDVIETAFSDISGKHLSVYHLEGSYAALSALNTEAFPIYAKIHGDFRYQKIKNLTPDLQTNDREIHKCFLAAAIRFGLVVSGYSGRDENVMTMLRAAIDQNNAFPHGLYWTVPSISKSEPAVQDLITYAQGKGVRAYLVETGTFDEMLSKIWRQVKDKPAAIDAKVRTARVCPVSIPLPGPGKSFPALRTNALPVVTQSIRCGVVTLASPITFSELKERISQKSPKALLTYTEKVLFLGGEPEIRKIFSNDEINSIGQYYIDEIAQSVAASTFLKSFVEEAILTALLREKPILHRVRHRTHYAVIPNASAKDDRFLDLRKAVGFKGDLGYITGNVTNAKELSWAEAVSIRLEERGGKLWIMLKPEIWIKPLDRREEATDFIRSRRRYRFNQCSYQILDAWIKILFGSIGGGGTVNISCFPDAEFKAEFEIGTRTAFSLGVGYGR
Chain of SIR2-APAZ;short prokaryotic Ago (SIR2-APAZ system) (chain, as listed by the source |, chain 2 of 2): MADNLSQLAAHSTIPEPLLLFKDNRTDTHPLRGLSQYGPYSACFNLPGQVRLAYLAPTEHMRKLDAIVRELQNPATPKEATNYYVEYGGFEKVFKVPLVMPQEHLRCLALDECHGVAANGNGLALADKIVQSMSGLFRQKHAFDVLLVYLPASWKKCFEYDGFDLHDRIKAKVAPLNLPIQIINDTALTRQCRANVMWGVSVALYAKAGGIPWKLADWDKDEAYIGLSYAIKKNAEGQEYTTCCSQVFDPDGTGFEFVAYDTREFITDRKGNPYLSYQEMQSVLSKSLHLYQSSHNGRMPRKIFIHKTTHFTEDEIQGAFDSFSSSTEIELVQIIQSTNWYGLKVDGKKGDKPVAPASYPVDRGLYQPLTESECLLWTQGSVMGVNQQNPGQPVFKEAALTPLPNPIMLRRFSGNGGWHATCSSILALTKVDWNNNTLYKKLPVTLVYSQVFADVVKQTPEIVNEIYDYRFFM

stoichiometry N [1]: 2
Molecule: Ago protein from Maribacter polysiphoniae (natural protein)

stoichiometry N [3]: 4
Molecule: TIR-APAZ/Ago complex from Maribacter polysiphoniae

Further lines, the molecule ahead of its results:

Molecule: TIR-APAZ protein from Maribacter polysiphoniae (natural protein)
stoichiometry N [2]: 4

B1: gRNA + target ssDNA (SIR2-APAZ/Ago) (DNA:RNA)
RNA: AUAAUGGUUUCUUAGACGUCGUUUUAGAGCUGUGUUGUUUCG
DNA: CGAAACAACACAGCTCTAAAACGACGTCTAAGAAACCATTAT
modifications: 5'-phosphate on gRNA
binding result [4]: binds

Source: publication PMC10474274, “Structural insights into mechanisms of Argonaute protein-associated NADase activation in bacterial immunity”
